Assays:
[1] = target: pre-S1 domain of the L envelope protein on HBV (genotype D) virus (Hepatitis B virus genotype D); assay: cell-based or functional assay
[2] = target: pre-S1 domain of the L envelope protein on HBV (genotype C) virus (Hepatitis B virus genotype C); assay: cell-based or functional assay
[3] = target: pre-S1 domain of the L envelope protein on HBV (genotype B) virus (Hepatitis B virus genotype B); assay: cell-based or functional assay
[4] = target: T1, NC36b: peptide comprising residues 4-38 of the pre-S1 domain of HBV L protein with a biotin modification at … (Hepatitis B virus (genotype  …, C-terminal K-Biotin)); assay: ELISA on peptide captured by streptavidin
T1 peptide: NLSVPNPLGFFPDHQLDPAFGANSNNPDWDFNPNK

B1: A14 (antibody, V domains shown)
VH: QVQLQQSGPGLVKPSQTLSLTCAISGDSVSSNSAAWNWIRQSPSRGLEWLGRTYYRSKWYNDYAVSVKSRITINPDTSKNQFSLQLNSVTPEDTAVYYCARGTRWGMDVWGQGTLVTVSS
VL: QSVLTQPPSASGTPGQRVTISCSGSSSNIGSYYVYWYQQFPGTAPKLLIYGNNQRPSGVPDRFSGSKSGTSASLAITGLQAEDEADYYCQSYDSSLSGVIFGGGTKLTVL
[1]
  HBV (genotype D) neutralization activity, against HBIG: > 1000 fold
  IC50 of HBV neutralization, genotype D: 0.01 nM
[2]
  IC50 of HBV neutralization, genotype C: 0.03 nM
[3]
  IC50 of HBV neutralization, genotype B: 0.08 nM

B2: #8 (antibody, V domains shown)
VH: QVQLQQSGPGLVKPSQTLSLTCAISGDSVSSNSAAWNWIRQSPSRGLEWLGRTYYRSKWYNDYAVSVKSRITINPDTSKNQFSLQLNSVTPEDTAVYYCARGTRWGMDVWGQGTLVTVSS
VL: QSVVTQPPSVSAAPGQKVTISCSGSSSNIGNYYVSWYQHLPGTAPKLLIYDNAKRPSGIPDRFSGSKSGTSATLGITGLRAEDEADYYCQSYDNSLSGLVFGGGTKLTVL
[1]
  HBV (genotype D) neutralization, against A14: 5 fold

B3: 2H5 (antibody, V domains shown)
VH: QVQLQQSGPGLVKPSQTLSLTCGISGDSVSSKSAAWNWIRQSPSRGLEWLGRTYYRSKWHNDYAVSVKSRITINPDTSKNQFSLQLNSVTPEDTAVYYCARGQMGALDVWGQGTTVTVSS
VL: QSVLTQPPSASGTPGQRVTISCSGSSSNIGSYYVYWYQQFPGTAPKLLIYGNNQRPSGVPDRFSGSKSGTSASLAITGLQAEDEADYYCQSYDSSLSGVIFGGGTKLTVL
[1]
  IC50 in HBV infection assay, against KR127: 11 fold

B4: m1Q (antibody, V domains shown)
VH: QVQLVESGGGVVQPGRSLRLSCAASGFTFSSYAMHWVRQAPGKGLEQVAVISYDGSNKYYVDSVKGRFTISRDNSKNTLYLQMNSLRAEDTAVYYCARSTYGMDVWGQGTTVTVSS
VL: DVVMTQSPLSLPVTLGQSASISCRSSQSLVHSDGNTYLNWFQQRPGQSPRRLIYKVSNRDSGVPDRFSGSGSDTDFTLEISRVEAEDVGIYYCMQGTHWWTFGQGTKLDIK
notes: also called m10Q (label of the VL entry)
[4]
  binding result: binds

B5: m36 (antibody, V domains shown)
VH: QMQLVQSGGGLVQPGRSLRLSCAASGFTFDDYAMHWVRQAPGKGLEWVSGISWNSGSIGYADSVKGRFTISRDNAKNSLYLQMNSLRAEDTALYYCAKTSYGGAFDIWGQGTMVTVSS
VL: QPVLTQSPSASGTPGQRVTISCSGNTSNIGSYYAYWYQQLPGTAPKLLIYDNNQRPSGIPARFSGSKSGTSASLAISGLQSEDEADYYCATWDDSLNGPVFGGGTKVTVL
[4]
  binding result: binds
